Tested on: Escherichia coli TOP10
Experiment: shrunken log2 fold change of peptide-encoding DNA abundance (4.5 h post-induction vs induction); higher = less antimicrobial activity (less host growth inhibition)
Settings: time post-induction: 4.5 h; library: site-saturation at positions 5, 18, 19, 20
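Further: peptides expressed intracellularly from a pBAD plasmid library in pooled LB shake-flask culture, induced with 0.3% L-arabinose, DNA abundance read by NGS, three biological replicates, DESeq2 with apeglm shrinkage.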

Sequence: RRIRPRPPRLPRPRPRPWPAPRP
- shrunken log2 fold change: 0.0589

Sequence: RRIRYRPPRLPRPRPRPMMTPRP
- shrunken log2 fold change: -0.111

Sequence: RRIRPRPPRLPRPRPRPTENPRP
- shrunken log2 fold change: 0.138

Sequence: RRIRVRPPRLPRPRPRPYQDPRP
- shrunken log2 fold change: -1.42

Sequence: RRIRKRPPRLPRPRPRPAVHPRP
- shrunken log2 fold change: 0.112

Sequence: RRIRRRPPRLPRPRPRPNAAPRP
- shrunken log2 fold change: 0.794

Sequence: RRIRIRPPRLPRPRPRPPFWPRP
- shrunken log2 fold change: 0.288

Sequence: RRIRIRPPRLPRPRPRPNRPPRP
- shrunken log2 fold change: -0.212

Sequence: RRIRNRPPRLPRPRPRPVFFPRP
- shrunken log2 fold change: -0.223

Sequence: RRIRSRPPRLPRPRPRPMINPRP
- shrunken log2 fold change: -0.23

Sequence: RRIRWRPPRLPRPRPRPGALPRP
- shrunken log2 fold change: 0.406

Sequence: RRIRERPPRLPRPRPRPEMKPRP
- shrunken log2 fold change: 0.425

Sequence: RRIRVRPPRLPRPRPRPFDYPRP
- shrunken log2 fold change: -0.221

Sequence: RRIRDRPPRLPRPRPRPFQLPRP
- shrunken log2 fold change: -0.0537

Sequence: RRIRVRPPRLPRPRPRPSWHPRP
- shrunken log2 fold change: -0.00555

Sequence: RRIRGRPPRLPRPRPRPWPVPRP
- shrunken log2 fold change: 0.674

Sequence: RRIRIRPPRLPRPRPRPIPRPRP
- shrunken log2 fold change: 0.0123

Sequence: RRIRHRPPRLPRPRPRPIFTPRP
- shrunken log2 fold change: -0.191

Sequence: RRIRSRPPRLPRPRPRPDGIPRP
- shrunken log2 fold change: -0.0491

Sequence: RRIRKRPPRLPRPRPRPTGLPRP
- shrunken log2 fold change: 0.223

Sequence: RRIRHRPPRLPRPRPRPPRRPRP
- shrunken log2 fold change: 0.452

Sequence: RRIRCRPPRLPRPRPRPMEGPRP
- shrunken log2 fold change: -0.00776

Sequence: RRIRTRPPRLPRPRPRPMWGPRP
- shrunken log2 fold change: -0.00569

Sequence: RRIRRRPPRLPRPRPRPQWTPRP
- shrunken log2 fold change: 0.31

Sequence: RRIRKRPPRLPRPRPRPHVFPRP
- shrunken log2 fold change: 0.015

Sequence: RRIRFRPPRLPRPRPRPMCMPRP
- shrunken log2 fold change: -0.153

Sequence: RRIRRRPPRLPRPRPRPGRFPRP
- shrunken log2 fold change: 0.451

Sequence: RRIRQRPPRLPRPRPRPCWWPRP
- shrunken log2 fold change: 0.0676

Sequence: RRIRGRPPRLPRPRPRPCVFPRP
- shrunken log2 fold change: 0.664

Sequence: RRIRERPPRLPRPRPRPCPIPRP
- shrunken log2 fold change: -0.246

Sequence: RRIRERPPRLPRPRPRPPQVPRP
- shrunken log2 fold change: 0.207

Sequence: RRIRHRPPRLPRPRPRPQEVPRP
- shrunken log2 fold change: -0.0461

Sequence: RRIRNRPPRLPRPRPRPKLFPRP
- shrunken log2 fold change: 0.371

Sequence: RRIRPRPPRLPRPRPRPTIVPRP
- shrunken log2 fold change: 0.121

Sequence: RRIRARPPRLPRPRPRPPWHPRP
- shrunken log2 fold change: 0.342

Sequence: RRIRWRPPRLPRPRPRPQQEPRP
- shrunken log2 fold change: 0.0149

Sequence: RRIRGRPPRLPRPRPRPLIFPRP
- shrunken log2 fold change: 0.404

Sequence: RRIRYRPPRLPRPRPRPPAHPRP
- shrunken log2 fold change: 0.178

Sequence: RRIRCRPPRLPRPRPRPHKPPRP
- shrunken log2 fold change: 0.0762

Sequence: RRIRKRPPRLPRPRPRPMSAPRP
- shrunken log2 fold change: 0.0584

Sequence: RRIRLRPPRLPRPRPRPNNCPRP
- shrunken log2 fold change: -0.207

Sequence: RRIRHRPPRLPRPRPRPEPDPRP
- shrunken log2 fold change: 0.257

Sequence: RRIRNRPPRLPRPRPRPQINPRP
- shrunken log2 fold change: -0.181

Sequence: RRIRHRPPRLPRPRPRPSLKPRP
- shrunken log2 fold change: -0.488

Sequence: RRIRSRPPRLPRPRPRPHMTPRP
- shrunken log2 fold change: -0.384

Sequence: RRIRGRPPRLPRPRPRPTMTPRP
- shrunken log2 fold change: 2.08

Sequence: RRIRWRPPRLPRPRPRPKPEPRP
- shrunken log2 fold change: 0.351

Sequence: RRIRKRPPRLPRPRPRPCCWPRP
- shrunken log2 fold change: 1.1

Sequence: RRIRDRPPRLPRPRPRPDLPPRP
- shrunken log2 fold change: 0.337

Sequence: RRIRTRPPRLPRPRPRPCQSPRP
- shrunken log2 fold change: 0.183

Sequence: RRIRKRPPRLPRPRPRPWDCPRP
- shrunken log2 fold change: 0.121

Sequence: RRIRIRPPRLPRPRPRPCNYPRP
- shrunken log2 fold change: -0.103

Sequence: RRIRPRPPRLPRPRPRPIITPRP
- shrunken log2 fold change: -0.587

Sequence: RRIRIRPPRLPRPRPRPVVSPRP
- shrunken log2 fold change: -0.503

Sequence: RRIRSRPPRLPRPRPRPRKYPRP
- shrunken log2 fold change: -0.312

Sequence: RRIRMRPPRLPRPRPRPYPCPRP
- shrunken log2 fold change: 0.0288

Sequence: RRIRYRPPRLPRPRPRPHQYPRP
- shrunken log2 fold change: -0.402

Sequence: RRIRYRPPRLPRPRPRPAFMPRP
- shrunken log2 fold change: -0.658

Sequence: RRIRQRPPRLPRPRPRPSVCPRP
- shrunken log2 fold change: -0.14

Sequence: RRIRLRPPRLPRPRPRPMRQPRP
- shrunken log2 fold change: 0.181

Sequence: RRIRWRPPRLPRPRPRPDCQPRP
- shrunken log2 fold change: -0.00822

Sequence: RRIRCRPPRLPRPRPRPADKPRP
- shrunken log2 fold change: -0.0716

Sequence: RRIRGRPPRLPRPRPRPVQHPRP
- shrunken log2 fold change: 0.542

Sequence: RRIRGRPPRLPRPRPRPNYRPRP
- shrunken log2 fold change: 0.0016

Sequence: RRIRDRPPRLPRPRPRPSYMPRP
- shrunken log2 fold change: -0.111

Sequence: RRIRHRPPRLPRPRPRPSSAPRP
- shrunken log2 fold change: -0.0336

Sequence: RRIRPRPPRLPRPRPRPNEWPRP
- shrunken log2 fold change: -0.203

Sequence: RRIRTRPPRLPRPRPRPLPHPRP
- shrunken log2 fold change: -0.00316

Sequence: RRIRDRPPRLPRPRPRPRQYPRP
- shrunken log2 fold change: -0.332

Sequence: RRIRWRPPRLPRPRPRPYAPPRP
- shrunken log2 fold change: -0.232

Sequence: RRIRTRPPRLPRPRPRPQVHPRP
- shrunken log2 fold change: -0.221

Sequence: RRIRTRPPRLPRPRPRPLVCPRP
- shrunken log2 fold change: 0.0682

Sequence: RRIRVRPPRLPRPRPRPWWVPRP
- shrunken log2 fold change: 0.00127

Sequence: RRIRIRPPRLPRPRPRPERFPRP
- shrunken log2 fold change: -0.0158

Sequence: RRIRLRPPRLPRPRPRPFLEPRP
- shrunken log2 fold change: -0.106

Sequence: RRIRARPPRLPRPRPRPGADPRP
- shrunken log2 fold change: 0.832

Sequence: RRIRERPPRLPRPRPRPPAFPRP
- shrunken log2 fold change: 0.331

Sequence: RRIRCRPPRLPRPRPRPKCEPRP
- shrunken log2 fold change: 0.11

Sequence: RRIRKRPPRLPRPRPRPSMMPRP
- shrunken log2 fold change: 0.677

Sequence: RRIRWRPPRLPRPRPRPAFSPRP
- shrunken log2 fold change: 0.383

Sequence: RRIRMRPPRLPRPRPRPCMQPRP
- shrunken log2 fold change: -0.143

Sequence: RRIRMRPPRLPRPRPRPPYPPRP
- shrunken log2 fold change: 0.134

Sequence: RRIRNRPPRLPRPRPRPAALPRP
- shrunken log2 fold change: 0.341

Sequence: RRIRRRPPRLPRPRPRPPQWPRP
- shrunken log2 fold change: 0.66

Sequence: RRIRDRPPRLPRPRPRPFRIPRP
- shrunken log2 fold change: 0.0432

Sequence: RRIRVRPPRLPRPRPRPDDRPRP
- shrunken log2 fold change: -0.0538

Sequence: RRIRPRPPRLPRPRPRPNGNPRP
- shrunken log2 fold change: -0.144

Sequence: RRIRYRPPRLPRPRPRPHLAPRP
- shrunken log2 fold change: 0.13

Sequence: RRIRDRPPRLPRPRPRPLGSPRP
- shrunken log2 fold change: 0.2

Sequence: RRIRDRPPRLPRPRPRPGNDPRP
- shrunken log2 fold change: 0.0652

Sequence: RRIRKRPPRLPRPRPRPQPGPRP
- shrunken log2 fold change: 0.406

Sequence: RRIRGRPPRLPRPRPRPATPPRP
- shrunken log2 fold change: 1.83

Sequence: RRIRPRPPRLPRPRPRPKIGPRP
- shrunken log2 fold change: 0.0118

Sequence: RRIRRRPPRLPRPRPRPPNAPRP
- shrunken log2 fold change: 1.06

Sequence: RRIRYRPPRLPRPRPRPACCPRP
- shrunken log2 fold change: -0.405

Sequence: RRIRTRPPRLPRPRPRPEYAPRP
- shrunken log2 fold change: -0.00931

Sequence: RRIRFRPPRLPRPRPRPEVMPRP
- shrunken log2 fold change: -0.0905

Sequence: RRIRWRPPRLPRPRPRPMSAPRP
- shrunken log2 fold change: 0.338

Sequence: RRIRWRPPRLPRPRPRPLEWPRP
- shrunken log2 fold change: 0.0624

Sequence: RRIRQRPPRLPRPRPRPPASPRP
- shrunken log2 fold change: 0.191

Sequence: RRIRLRPPRLPRPRPRPGMCPRP
- shrunken log2 fold change: -0.0891

Sequence: RRIRGRPPRLPRPRPRPQQNPRP
- shrunken log2 fold change: 0.383

Sequence: RRIRHRPPRLPRPRPRPMWYPRP
- shrunken log2 fold change: -0.0997

Sequence: RRIRPRPPRLPRPRPRPVTWPRP
- shrunken log2 fold change: -0.0661

Sequence: RRIRTRPPRLPRPRPRPHPSPRP
- shrunken log2 fold change: 0.00449

Sequence: RRIRDRPPRLPRPRPRPIHPPRP
- shrunken log2 fold change: -0.125

Sequence: RRIRQRPPRLPRPRPRPMHEPRP
- shrunken log2 fold change: 0.187

Sequence: RRIRDRPPRLPRPRPRPAWWPRP
- shrunken log2 fold change: 0.388

Sequence: RRIRSRPPRLPRPRPRPQQPPRP
- shrunken log2 fold change: -0.273

Sequence: RRIRIRPPRLPRPRPRPCYYPRP
- shrunken log2 fold change: -0.272

Sequence: RRIRIRPPRLPRPRPRPPIWPRP
- shrunken log2 fold change: -0.00949

Sequence: RRIRCRPPRLPRPRPRPNYRPRP
- shrunken log2 fold change: -0.077

Sequence: RRIRSRPPRLPRPRPRPRPAPRP
- shrunken log2 fold change: 0.467

Sequence: RRIRGRPPRLPRPRPRPGFLPRP
- shrunken log2 fold change: 0.41

Sequence: RRIRLRPPRLPRPRPRPTHFPRP
- shrunken log2 fold change: 0.362

Sequence: RRIRSRPPRLPRPRPRPNALPRP
- shrunken log2 fold change: -0.0803

Sequence: RRIRPRPPRLPRPRPRPLMHPRP
- shrunken log2 fold change: -0.0913

Sequence: RRIRMRPPRLPRPRPRPDDPPRP
- shrunken log2 fold change: 1.6

Sequence: RRIRLRPPRLPRPRPRPKIIPRP
- shrunken log2 fold change: -0.69

Sequence: RRIRYRPPRLPRPRPRPAACPRP
- shrunken log2 fold change: 0.115

Sequence: RRIRYRPPRLPRPRPRPGTDPRP
- shrunken log2 fold change: -0.0254

Sequence: RRIRCRPPRLPRPRPRPCQTPRP
- shrunken log2 fold change: -0.7

Sequence: RRIRMRPPRLPRPRPRPRDKPRP
- shrunken log2 fold change: 0.0704

Sequence: RRIRGRPPRLPRPRPRPRQDPRP
- shrunken log2 fold change: 0.452

Sequence: RRIRQRPPRLPRPRPRPYCTPRP
- shrunken log2 fold change: -0.863
